Columns and labels:
[1] = tested on: kynurenine (KYNU) and 3-hydroxykynurenin, substrates of AADAT; assay: AADAT activity test (disappearance of kynurenine/3-hydroxykynurenin; production of KYNA and XANA in vitro); assay type: biochemical; conditions: 15 min, KYNU 1000 μM, FIG. 4F
Procedure: KAT activity may be assessed by any method known by the skilled person. For instance, KAT activity could be assessed as described in the experimental section, i.e. an assay based on the disappearance of kynurenine and/or 3-hydroxykynurenin. Briefly, a reaction mixture (50 μL final volume) containing 10 mM L-kynurenine or 3-hydroxykynurenin, 2 mM α-oxoglutarate, 40 μM PLP (pyridoxal 5′-phosphate) and 0 or 1 μL of the protein to be tested prepared in buffer 100 mM potassium phosphate (pH 7.4), is incubated at 37° C. for 15 min. The reaction is stopped by the addition of an equal volume of 30% acetic acid. The supernatant of the reaction mixture, obtained by centrifugation at 3000 g for 10 min at 4° C., is mixed equally with Ehrlich's solution and incubated 15 min at room temperature to have a colorimetric reaction. In parallel, a standard range of kynurenine or 3-hydroxykynurenin from 0 μM to 1000 μM is made under the same conditions. The amount of kynurenine or 3-hydroxykynurenin present in the sample is measured with a spectrophotometer at an OD of 492 nm and calculated using the standard range. […]
The activity test is based on the disappearance of kynurenine and 3-hydroxykynurenin which are substrates of AADAT. […] The amount of kynurenine or 3-hydroxykynurenin present in the sample was measured with a spectrophotometer at an OD of 492 nm and calculated using the standard range (FIG. 4E).

[2] = tested on: mice submitted to DSS-induced colitis; assay: DSS-induced colitis model in mice; assay type: in vivo, mouse (C57BL/6JRj); conditions: purified AADAT intraperitoneally
Procedure: C57BL/6JRj from Janvier lab, 7 weeks old, were housed in our specific pathogen free animal facility at IERP (INRA, Jouy en Josas, France). Five to ten female mice per group were used in all experiment, were maintained in a temperature controlled (23° C.) facility with a strict 12 h light/dark cycles and were given free access to food and water. After one acclimation week, we changed water with DSS 2% (MP Biomedical) during 7 days (day 0 to day 7), and a
recovery period was practiced until day 12 (during 5 days). Body weight loss and DAI (disease activity index) were performed daily. After 12 days the samples were harvested.
Colon distal part (cut in three parts) was harvested at day 12 after DSS model and put directly in PFA (Rothi®—Histofix 4%) during 48 h and transferred in ethanol 70% until the standard pre-fixation automat and paraffin embedded. HES coloration was practiced on 5Im cut.
Data were analyzed using Prism version 7 (Graphpad Software, San Diego, USA). The non-parametric Mann Withney test or the parametric one-way ANOVA tests with multiple Bonferroni's comparison tests were performed. Values are expressed as mean±SEM. Statistical significance was defined at a p-value ****<0.0001, ***<0.001, **<0.01, *<0.05.

[3] = 10, 1 and 0.1 μL per day and per mouse

B1: AADAT: recombinant murine Alpha-Aminoadipate AminoTransferase (SEQ ID NO:13) expressed in E. coli and purified by affinity chromatography (protein, listed as Mus musculus)
chain: MNYSRFLTATSLARKPSPIRTTADILSKAPKTLISLAPGSPNPSMFPFKSAAFTVENGSTIRFEDDLIKRALQYSPSYGIPELLSWLKQFQVKLHNPPTVNYPPNQGQMDLCITSGCQDGLCKAFEMLINPGDTILVNEPLFPGTLYAMKPLGCNIINVPSDEHGIIPEGLKKILSQWKPEDSKDPTKKTPKFLYTVPNGNNPTGNSLTGDRKKEIYELARKYDFLIIEDDPYYFLQFSKPWEPTFLSMDVDGRVIRADTFSKTVSSGLRVGFMTGPKTLIQNIVLHTQVSSVHACTLSQLMILQLLHQWGEEGFLAHIDRTIDFYKNQRDSILAAADKWLRGLAEWHVPKAGMFLWIKVKGISDTKQLIEEKAIEREVLLVPGNGFFIDGSAPTSFFRASFSLATPAQMDTAFQRLAQLIKESL
transformation of KYNU into KYNA and XANA [1]: A dose effect can be observed
protective effect at the two lower doses ([2]; 1 and 0.1 μL per day and per mouse): protective effect is also seen
clinical score [2, 3]: protection, with a dose effect
histological score [2, 3]: protection, with a dose effect
weight loss [2, 3]: protection, with a dose effect
colon length ([2]; 10, 1 and 0.1 μL per day and per mouse, day 12): protection, with a dose effect

From patent US20240408183A1, “KYNURENINE AMINOTRANSFERASE AND PRODUCTS THEREOF FOR THE TREATMENT OF INFLAMMATORY BOWEL DISEASES” (Institut National De Recherche Pour L'Agriculture, …, priority 2021, published 2024)
